Reference: patent EP1892250A2

Key:
[1] = target: α6β1 integrin on human cells (1064SK fibroblasts, endothelial cells) (human) (UniProt P23229); assay: cell-based or functional assay
[2] = target: αvβ3 integrin on human cells (human) (UniProt P06756); assay: cell-based or functional assay
Chain of αvβ3 integrin on human cells (human) (P06756 31-1048, chain 1 of 2): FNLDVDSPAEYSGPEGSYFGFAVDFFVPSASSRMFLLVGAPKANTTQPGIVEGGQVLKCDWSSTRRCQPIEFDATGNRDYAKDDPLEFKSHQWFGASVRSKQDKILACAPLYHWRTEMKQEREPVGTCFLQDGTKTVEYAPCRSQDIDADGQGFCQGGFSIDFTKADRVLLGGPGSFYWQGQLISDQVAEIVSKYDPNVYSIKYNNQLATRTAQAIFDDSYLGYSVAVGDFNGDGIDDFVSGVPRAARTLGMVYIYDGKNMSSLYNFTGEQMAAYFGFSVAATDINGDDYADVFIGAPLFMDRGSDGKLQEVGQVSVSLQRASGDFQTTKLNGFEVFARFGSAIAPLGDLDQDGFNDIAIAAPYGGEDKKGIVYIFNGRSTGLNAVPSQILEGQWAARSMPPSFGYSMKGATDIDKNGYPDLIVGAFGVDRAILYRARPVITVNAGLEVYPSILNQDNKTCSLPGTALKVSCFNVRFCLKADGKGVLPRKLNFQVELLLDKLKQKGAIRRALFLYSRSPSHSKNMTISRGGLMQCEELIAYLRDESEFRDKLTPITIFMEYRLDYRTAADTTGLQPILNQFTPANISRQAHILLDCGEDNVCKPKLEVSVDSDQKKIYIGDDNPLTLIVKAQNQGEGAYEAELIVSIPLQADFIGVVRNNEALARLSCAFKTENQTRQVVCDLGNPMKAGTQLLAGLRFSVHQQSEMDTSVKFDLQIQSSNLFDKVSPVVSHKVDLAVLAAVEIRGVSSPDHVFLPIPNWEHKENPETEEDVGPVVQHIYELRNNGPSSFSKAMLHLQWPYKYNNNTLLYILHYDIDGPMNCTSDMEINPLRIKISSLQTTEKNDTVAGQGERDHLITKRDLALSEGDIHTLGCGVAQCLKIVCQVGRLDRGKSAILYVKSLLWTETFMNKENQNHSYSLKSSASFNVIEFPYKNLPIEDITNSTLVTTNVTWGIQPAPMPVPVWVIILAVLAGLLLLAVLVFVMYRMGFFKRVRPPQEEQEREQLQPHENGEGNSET
Chain of αvβ3 integrin on human cells (human) (P05106 27-788, chain 2 of 2, further chain): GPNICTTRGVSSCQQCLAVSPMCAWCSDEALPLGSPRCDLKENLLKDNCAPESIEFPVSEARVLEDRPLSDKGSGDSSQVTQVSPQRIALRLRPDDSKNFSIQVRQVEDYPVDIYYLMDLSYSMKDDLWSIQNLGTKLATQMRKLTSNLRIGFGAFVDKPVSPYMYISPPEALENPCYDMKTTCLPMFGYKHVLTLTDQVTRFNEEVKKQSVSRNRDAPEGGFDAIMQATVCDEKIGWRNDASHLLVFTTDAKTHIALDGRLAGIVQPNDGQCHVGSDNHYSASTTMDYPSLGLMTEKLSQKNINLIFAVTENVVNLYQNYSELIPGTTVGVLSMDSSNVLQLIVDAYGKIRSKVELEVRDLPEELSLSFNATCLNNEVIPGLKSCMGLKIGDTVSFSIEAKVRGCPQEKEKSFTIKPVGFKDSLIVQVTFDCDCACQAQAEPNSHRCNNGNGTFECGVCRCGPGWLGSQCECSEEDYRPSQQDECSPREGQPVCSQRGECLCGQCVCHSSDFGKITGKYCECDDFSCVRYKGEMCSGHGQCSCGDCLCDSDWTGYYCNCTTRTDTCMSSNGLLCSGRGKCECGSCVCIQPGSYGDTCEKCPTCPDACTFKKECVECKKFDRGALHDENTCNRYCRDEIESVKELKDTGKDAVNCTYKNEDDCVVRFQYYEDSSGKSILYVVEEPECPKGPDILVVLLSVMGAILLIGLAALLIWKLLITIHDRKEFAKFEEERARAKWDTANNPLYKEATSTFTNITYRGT

Chain of α6β1 integrin on human cells (1064SK fibroblasts, endothelial cells) (human) (P23229 24-1130, chain 1 of 2): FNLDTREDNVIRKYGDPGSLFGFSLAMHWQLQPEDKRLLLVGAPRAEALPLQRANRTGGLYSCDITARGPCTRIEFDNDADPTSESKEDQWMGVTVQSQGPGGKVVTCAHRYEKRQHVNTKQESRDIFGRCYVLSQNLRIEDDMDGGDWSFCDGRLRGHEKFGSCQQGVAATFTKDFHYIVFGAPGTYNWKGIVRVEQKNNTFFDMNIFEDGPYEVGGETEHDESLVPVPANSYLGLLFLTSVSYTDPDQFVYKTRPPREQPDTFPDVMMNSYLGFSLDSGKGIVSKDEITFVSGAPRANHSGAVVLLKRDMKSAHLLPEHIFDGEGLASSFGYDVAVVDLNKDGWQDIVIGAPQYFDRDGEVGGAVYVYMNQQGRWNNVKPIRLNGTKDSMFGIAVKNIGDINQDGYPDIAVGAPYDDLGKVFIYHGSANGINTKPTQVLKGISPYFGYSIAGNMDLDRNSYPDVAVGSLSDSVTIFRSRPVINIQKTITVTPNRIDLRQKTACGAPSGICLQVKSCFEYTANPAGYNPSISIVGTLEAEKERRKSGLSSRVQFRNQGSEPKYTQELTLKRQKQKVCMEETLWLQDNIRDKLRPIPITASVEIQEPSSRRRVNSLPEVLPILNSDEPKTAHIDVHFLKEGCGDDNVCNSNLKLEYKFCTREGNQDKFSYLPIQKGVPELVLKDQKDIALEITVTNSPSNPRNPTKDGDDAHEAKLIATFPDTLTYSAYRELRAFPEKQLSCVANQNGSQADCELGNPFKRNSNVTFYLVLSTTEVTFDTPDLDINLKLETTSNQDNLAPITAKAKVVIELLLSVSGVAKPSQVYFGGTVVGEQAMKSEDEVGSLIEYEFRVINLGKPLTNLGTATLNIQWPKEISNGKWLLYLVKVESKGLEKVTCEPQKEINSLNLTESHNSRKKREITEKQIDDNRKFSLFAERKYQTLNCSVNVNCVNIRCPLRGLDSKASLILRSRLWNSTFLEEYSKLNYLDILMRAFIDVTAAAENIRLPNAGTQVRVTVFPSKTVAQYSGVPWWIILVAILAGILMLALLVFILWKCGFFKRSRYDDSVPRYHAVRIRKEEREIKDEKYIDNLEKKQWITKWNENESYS
Chain of α6β1 integrin on human cells (1064SK fibroblasts, endothelial cells) (human) (P05556 21-798, chain 2 of 2, further chain): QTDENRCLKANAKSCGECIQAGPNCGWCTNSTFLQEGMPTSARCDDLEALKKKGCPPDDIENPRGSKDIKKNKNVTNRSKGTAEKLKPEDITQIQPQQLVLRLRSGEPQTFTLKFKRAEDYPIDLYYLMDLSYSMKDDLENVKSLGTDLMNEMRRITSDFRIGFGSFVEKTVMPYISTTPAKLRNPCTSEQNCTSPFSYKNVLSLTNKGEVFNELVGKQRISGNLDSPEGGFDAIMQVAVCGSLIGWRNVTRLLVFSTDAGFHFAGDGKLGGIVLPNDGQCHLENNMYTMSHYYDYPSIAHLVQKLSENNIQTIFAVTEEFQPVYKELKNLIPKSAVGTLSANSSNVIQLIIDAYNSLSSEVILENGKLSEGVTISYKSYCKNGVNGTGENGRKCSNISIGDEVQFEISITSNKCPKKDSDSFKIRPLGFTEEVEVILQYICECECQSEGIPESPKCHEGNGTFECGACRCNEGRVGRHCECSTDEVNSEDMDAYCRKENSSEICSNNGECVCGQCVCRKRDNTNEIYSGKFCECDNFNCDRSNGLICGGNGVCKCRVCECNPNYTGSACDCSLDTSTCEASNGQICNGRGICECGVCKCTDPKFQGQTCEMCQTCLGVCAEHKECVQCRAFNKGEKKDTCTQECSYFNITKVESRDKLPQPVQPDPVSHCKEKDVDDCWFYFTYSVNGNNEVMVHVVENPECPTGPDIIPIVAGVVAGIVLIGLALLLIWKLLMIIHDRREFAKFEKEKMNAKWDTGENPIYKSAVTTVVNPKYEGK

Substance | 1064SK fibroblast adhesion to Cyr61 (2 µg/ml), with anti-α6 antibody 20 µg/ml (A620) [1] | 1064SK fibroblast adhesion to Cyr61 (2 µg/ml), with anti-β1 antibody JB1A 50 µg/ml (A620) [1] | 1064SK fibroblast adhesion to Cyr61 (2 µg/ml), without anti-α6 antibody (A620) [1] | 1064SK fibroblast adhesion to Cyr61 (2 µg/ml), without anti-β1 antibody JB1A (A620) [1] | 1064SK fibroblast adhesion to Cyr61 (A620), antibody: None (control) [1] | 1064SK fibroblast adhesion to Cyr61 (A620), antibody: anti-α1 (40 µg/ml) [1] | 1064SK fibroblast adhesion to Cyr61 (A620), antibody: anti-α1 + anti-α2 + anti-α3 (40 µg/ml each) [1] | 1064SK fibroblast adhesion to Cyr61 (A620), antibody: anti-α2 (40 µg/ml) [1] | 1064SK fibroblast adhesion to Cyr61 (A620), antibody: anti-α3 (40 µg/ml) [1] | 1064SK fibroblast adhesion to Cyr61 (A620), antibody: anti-α4 (40 µg/ml) [1] | inhibition of 1064SK fibroblast adhesion to Cyr61 by anti-α6 antibody [1] | inhibition of 1064SK fibroblast adhesion to Cyr61 by anti-β1 antibody JB1A [1] | inhibition of 1064SK fibroblast adhesion to wild-type Cyr61 by anti-α6 antibody (20 µg/ml) [1] | HUVE cell adhesion to wild-type Cyr61 (5 µg/ml), relative binding capacity, pre-incubation: Anti-αvβ3 antibody (LM609, 40 µg/ml) [2] | HUVE cell adhesion to wild-type Cyr61 (5 µg/ml), relative binding capacity, pre-incubation: EDTA (2.5 mM) [2] | HUVE cell adhesion to wild-type Cyr61 (5 µg/ml), relative binding capacity, pre-incubation: None [2] | HUVE cell adhesion to wild-type Cyr61 (5 µg/ml), relative binding capacity, pre-incubation: RGD peptide (1 mM) [2] | 1064SK fibroblast adhesion to laminin (5 µg/ml), with anti-α6 antibody 20 µg/ml (A620) [1] | 1064SK fibroblast adhesion to laminin (5 µg/ml), without anti-α6 antibody (A620) [1] | inhibition of 1064SK fibroblast adhesion to laminin by anti-α6 antibody [1]
human Cyr61 (from UniProt O00622 25-381) (ligand) | 0.08 A620 | 0.14 A620 | 0.53 A620 | 0.53 A620 | 0.58 A620 | 0.54 A620 | 0.56 A620 | 0.6 A620 | 0.55 A620 | 0.56 A620 | > 80% | 75% | 78% | 42% | 22% | 100% | 50% | – | – | –
mouse laminin (ligand) | – | – | – | – | – | – | – | – | – | – | – | – | – | – | – | – | – | 0.48 A620 | 0.62 A620 | 22%
